Assay [1] addresses tagged CXCR4 receptors stably expressed on recombinant CHO cells (human, UniProt P61072 1-352 (Pan troglodytes entry)). Put plainly: cell-based or functional assay.
In assay [2] the target is T1, human CXCR4 (hCXCR4), on CXCR4-positive cell line "CXCR4 E4" (human, UniProt P61073-2 2-356).
T1 construct: FACS target: 'Positive cells lines (CXCR4 E4)'; also called chemokine receptor 4; HuCXCR4
The assay is described as follows: FACS on CXCR4 E4 cells; serial dilution of Expi293F supernatant; anti-human IgG Alexa Fluor 647. How it is done: The DNA sequences encoding the chimeric antibody and humanized IgG heavy and light chains were synthesized and inserted into pCDNA3.4 vector to construct the expression plasmids of full-length IgGs. 18 humanized Abs were expressed in Expi293F cell culture, and then the cells were spun down. For affinity ranking, the supernatants were assayed by FACS against cell lines for the assessment of binding activity. Positive cells lines (CXCR4 E4) were cultured following the protocol and harvested by centrifugation. About 1×10⁵cells per well were washed with 1*PBS and incubated in a serial dilution of antibodies for 30 minutes at 4° C. After washing with PBS, secondary antibody [1 μg/ml Alexa Fluor® 647 AffiniPure Goat Anti-Human IgG (H+L)] was added to the cells and incubated in PBS for 30 minutes at 4° C. After washing with PBS, cells were analyzed for binding by using FACS Calibur (BD Bioscience, San Jose, Calif.) and Flowjo software. The antibodies were ranked by EC50.

Assay [3] has as its target T1, human CXCR4 (hCXCR4), on CXCR4-positive …. The assay is described as follows: FACS binding confirmation with purified IgG on CXCR4-expressing cells.

Positions count from the first letter of the chain named. Where “and” joins values, the source holds several entries; their conditions need not be identical. Equal values may be shown once.

tagged CXCR4 receptors stably expressed on recombinant CHO cells, sequence (P61072 other isoform, or with tags, fused parts or gaps): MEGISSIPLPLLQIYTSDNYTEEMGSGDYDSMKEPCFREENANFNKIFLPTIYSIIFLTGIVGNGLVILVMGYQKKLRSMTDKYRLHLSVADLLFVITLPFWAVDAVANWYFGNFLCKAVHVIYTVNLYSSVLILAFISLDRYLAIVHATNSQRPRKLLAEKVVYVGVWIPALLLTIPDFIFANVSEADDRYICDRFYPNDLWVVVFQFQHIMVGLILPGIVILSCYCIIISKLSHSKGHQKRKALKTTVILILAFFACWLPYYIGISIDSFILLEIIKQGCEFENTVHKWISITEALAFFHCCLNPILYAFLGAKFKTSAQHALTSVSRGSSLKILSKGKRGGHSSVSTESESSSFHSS
T1 sequence (P61073 other isoform, or with tags, fused parts or gaps): as the sequence (P61072 other isoform, or with tags, fused parts or gaps) above

B1: murine mAb 132F3F3H11 ("A8") (antibody, V domains shown)
VH: DVQLVESGGGLVQPGGSRKLSCAASGFTFSSSGMHWVRQAPEKGLEWVAYISSGSSSIYYADTVKGRFTISRDNPKNTLFLQMTSLRSEDTAMYYCARPYYYGSIAMDYWGQGTSVTVSS
VL: DIKMTQSPSSMYASLGERVTITCKASQDINSYLSWFQQKPGKSPKTLIYRANRLVDGVPSRFSGSGSGQDYSLTISSLEYEDMGIYYCLQYDEFPFTFGSGTKLEIK
For B1, the “HuCXCR4 Binding IC50 (nM) (CXCR4 cAMP functional assay, antagonist mode against 5.0 nM SDF-1)” value (from here on “HuCXCR4 Binding IC50 (nM)”) in assay [1] worked out at 0.381 nM.

B2: humanized antibody VH4/VL2 (antibody, V domains shown)
VH: QVQLVQSGAEVKKPGASVKMSCKASGYAFTDFHLNWVRQSHGQGLEWIGVINPYNGGTNYNQKFKDRVTLTVDTSISTAYMELSRLRSDDTAVYYCARYYASRYGYAMDYWGQGTLVTVSS
VL: DIVMTQSPLSLPVTPGEPVSISCRSSKSLLHSNGNTYLYWFLQKPGQSPQLLIYRMSNLASGVPDRFSGSGSGTDFTLKISRVEAEDVGVYYCMQHVEYPLTFGGGTKLEIK
notes: Expressed as full-length IgG in Expi293F cells and tested as supernatant
In the case of B2, the concentration for a half-maximal effect (EC50) in assay [2] was 1.99 µg/mL and 13.2 nM.

B3: humanized antibody VH3/VL2 (antibody, V domains shown)
VH: B2 VH with M20V
VL: B2 VL
notes: as for B2
In the case of B3, the EC50 in assay [2] was 2.93 µg/mL and 19.5 nM.

B4: humanized antibody VH2/VL1 (antibody, V domains shown)
VH: B2 VH with M20V, H41P
VL: B2 VL with V19A, F41Y
notes: as for B2
Take B4: the EC50 in assay [2] is 5.37 µg/mL and 35.8 nM.

B5: humanized antibody VH6/VL2 (antibody, V domains shown)
VH: B2 VH with R38K, V68A, T91S
VL: B2 VL
notes: as for B2
Consider B5, for which, in assay [2], the EC50 was 1.94 µg/mL and 13 nM.

B6: humanized antibody VH5/VL1 (antibody, V domains shown)
VH: B2 VH with R38K
VL: B2 VL with V19A, F41Y
notes: as for B2
Take B6: in assay [2], the EC50 is 0.375 µg/mL and 2.5 nM.

B7: humanized antibody VH5/VL3 (antibody, V domains shown)
VH: B2 VH with R38K
VL: B2 VL with P8A
notes: as for B2
As for B7, in assay [2], the 50% effective concentration (EC50) is 1.93 µg/mL and 12.8 nM.

B8: humanized antibody VH4/VL1 (antibody, V domains shown)
VH: B2 VH
VL: B2 VL with V19A, F41Y
notes: as for B2
B8: in assay [2], the EC50 is 2.39 µg/mL and 16 nM.

B9: humanized antibody VH3/VL3 (antibody, V domains shown)
VH: B2 VH with M20V
VL: B2 VL with P8A
notes: as for B2
As to B9, the EC50 in assay [2] was 2.82 µg/mL and 18.8 nM.

B10: humanized antibody VH6/VL3 (antibody, V domains shown)
VH: B2 VH with R38K, V68A, T91S
VL: B2 VL with P8A
notes: as for B2
In the case of B10, the half-maximal effective concentration (EC50) in assay [2] was 2.86 µg/mL and 19.1 nM.

B11: humanized antibody VH3/VL1 (antibody, V domains shown)
VH: B2 VH with M20V
VL: B2 VL with V19A, F41Y
notes: as for B2
On to B11, for which the 50% effective concentration (EC50) in assay [2] was 4.18 µg/mL and 27.9 nM.

B12: humanized antibody VH5/VL2 (antibody, V domains shown)
VH: B2 VH with R38K
VL: B2 VL
notes: as for B2
Turning to B12, in assay [2], the half-maximal effective concentration (EC50) is 1.61 µg/mL and 10.7 nM.

B13: humanized antibody VH2/VL2 (antibody, V domains shown)
VH: B2 VH with M20V, H41P
VL: B2 VL
notes: as for B2
As to B13, the EC50 in assay [2] was 4.82 µg/mL and 32.1 nM.

B14: humanized antibody VH2/VL3 (antibody, V domains shown)
VH: B2 VH with M20V, H41P
VL: B2 VL with P8A
notes: as for B2
In the case of B14, the half-maximal effective concentration (EC50) in assay [2] was 8.35 µg/mL and 55.7 nM.

B15: humanized antibody VH4/VL3 (antibody, V domains shown)
VH: B2 VH
VL: B2 VL with P8A
notes: as for B2
For the molecule B15, the EC50 in assay [2] was 1.97 µg/mL and 13.2 nM.

B16: humanized antibody VH6/VL1 (antibody, V domains shown)
VH: B2 VH with R38K, V68A, T91S
VL: B2 VL with V19A, F41Y
notes: as for B2
Regarding B16, the concentration giving a half-maximal response (EC50) in assay [2] was 1.45 µg/mL and 9.65 nM.

B17: murine mAb 201D10A12C1 ("A15") (antibody, V domains shown)
VH: EVQLQQSGPVLVRPGASVKMSCKASGYAFTDFHLNWVKQSHGKSLEWIGVINPYNGGTNYNQKFKDKATLTVDKSSSTAYMELNRLTSEDSAVYYCARYYASRYGYAMDYWGQGTSVTVSS
VL: DIVMTQAAPSVPVTPGESVSISCRSSKSLLHSNGNTYLYWFLQRPGQSPQLLIYRMSNLASGVPDRFSGSGSGTAFTLRISRVEAEDVGIYYCMQHVEYPLTFGAGTKLELK
Take B17: the “HuCXCR4 Binding IC50 (nM)” value in assay [1] turned out to be 1.18 nM.

B18: murine mAb 201D10E9F2 ("A17") (antibody, V domains shown)
VH: B17 VH
VL: B17 VL
As to B18, the “HuCXCR4 Binding IC50 (nM)” value in assay [1] turned out to be 1.48 nM.

B19: murine-human chimeric IgG1 derived from mAb 201D10A12C1 (A15) (antibody, V domains shown)
VH: B17 VH
VL: DIVMTQAAPSVPVTPGESVSISCRSSKSLLHSNGNTYLYWFLQRPGQSPQLLIYRMSNLASGVPDRFSGSGSGTAFTLRISRVEAEDVGIYYCMQHVEYPLTFGAGTKLELKR
notes: also called Chimeric (VH/VL); 4 Chimeric (VH/VL)
B19: the EC50 was 1.8 µg/mL in assay [3]; 1.56 µg/mL and 10.4 nM in assay [2].

B20: humanized IgG 2 (VH1/VL2) (antibody)
heavy: not shown
light: DIVMTQSPLSLPVTPGEPVSISCRSSKSLLHSNGNTYLYWFLQKPGQSPQLLIYRMSNLASGVPDRFSGSGSGTDFTLKISRVEAEDVGVYYCMQHVEYPLTFGGGTKLEIKRTVAAPSVFIFPPSDEQLKSGTASVVCLLNNFYPREAKVQWKVDNALQSGNSQESVTEQDSKDSTYSLSSTLTLSKADYEKHKVYACEVTHQGLSSPVTKSFNRGEC
notes: Full-length humanized IgG; also called H1/L2
Turning to B20, the half-maximal effective concentration (EC50) is 1.72 µg/mL in assay [3]; 2.19 µg/mL and 14.6 nM in assay [2].

B21: humanized IgG 1 (VH1/VL1) (antibody, V domains shown)
VH: B2 VH with M20V, S40A, H41P, I48M, L70M, V72R
VL: DIVMTQSPLSLPVTPGEPASISCRSSKSLLHSNGNTYLYWYLQKPGQSPQLLIYRMSNLASGVPDRFSGSGSGTDFTLKISRVEAEDVGVYYCMQHVEYPLTFGGGTKLEIKR
notes: Full-length humanized IgG; also called H1/L1
As for B21, the EC50 was 1.6 µg/mL in assay [3]; 1.72 µg/mL and 11.5 nM in assay [2].

B22: humanized IgG 3 (VH1/VL3) (antibody)
heavy: not shown
light: B20 light with P8A
notes: Full-length humanized IgG; also called H1/L3
As to B22, the concentration giving a half-maximal response (EC50) is 2.35 µg/mL in assay [3]; 2.27 µg/mL and 15.2 nM in assay [2].
